Results published in patent US10246503B2, “Method of improving the pharmacokinetic profile of a therapeutic polypeptide and the use thereof” (BEIJING ANXINHUAIDE BIOTECH. CO., LTD, priority 2012, dated 2019).

Tests used:
[1] = target: human GLP-1 receptor (GLP-1R) (human, UniProt P43220 24-463); assay: cell-based or functional assay
[2] = pharmacokinetics in SD rats, sandwich ELISA (Example 15); assay type: in vivo, SD (Sprague-Dawley) rats; conditions: intraperitoneal, 5 nmol/kg
Method: To evaluate the pharmacokinetics profiles for the GLP-1 containing fusion proteins generated using the method of the invention, we purified the recombinant fusion proteins of GLP-1-Fn8-COL18NC1, GLP1(A8G/G22E/R36G)-Fn8-p246-COL18NC1 and GLP1(A8G/G22E/R36G)-Fn8-p285-COL18NC1 in PBS buffer, pH 7.2. These fusion proteins were administered into SD (Sprague-Dawley) rats by intraperitoneal injections at the dose of 5 nmol/kg for animals, respectively. Blood samples were taken at various time points after injections such as 0-min, 30-min, 1-hour, 2-hour, 4-hour, 6-hour, 8-hour, 24-hour, 48-hour, 3-day, 4-day, 5-day, 6-day and 7-day. The serum samples were centrifuged and kept at −80° C. freezer.
The GLP-1 concentrations within the samples were examined by use of the sandwich ELISA method. The rabbit polyclonal antibody against human Fibronectin at the concentration of 3 ug/ml (Ab299, Abcam company) was coated on ELISA plate for 1 hour at room temperature. Then the plate was washed by PBST buffer three times and the wells were blocked by PBS with 10% FBS for 1 hour at room temperature. The plate was washed three times before the serum samples containing GLP-1 fusion proteins were added. The serum samples could be diluted to 20-10000 folds before use. The ELISA plate was incubated with the serum samples at room temperature for 1 hour and then washed by PBST buffer five times. Then mouse monoclonal against human GLP-1 peptide antibody (sc57510, Santa Cruz Biotechnology) at the concentration of 1 ug/ml in PBST buffer was added to the wells. The plate was washed extensively after incubation of 1 hour at room temperature. The secondary antibody, […] HRP conjugated antibody (Beijing ZSGB-Bio company, ZB 5301), was added into the wells and the color was developed using TMB (3,3′,5,5′-tetramethylbenzidine, BD Biosciences, Cat 555214). The plate reader (Bio-Rad microplate reader Model 680) was utilized to obtain the OD450 readings. This method has been calibrated using purified proteins first.
The pharmacokinetics parameters were obtained by using the WinNonlin software (Table 5).

[3] = analytical gel filtration (Superdex200), apparent molecular weight; assay type: physicochemical
Description: In the fusion protein of GLP-1(A8G/G22E)-Fn8-COL18NC1 described in example 4, the flexible unstructured linker between Fn8 and COL18NC1 contains six residues (GGGSGG; SEQ ID NO:89). To generate the flexible un-structured linkers with different lengths, we have synthesized the genes GLP-1(A8G/G22E/R36S)-Fn8-COL18NC1-20, GLP-1(A8G/G22E/R36S)-Fn8-COL18NC1-30, GLP-1(A8G/G22E/R36S)-Fn8-COL18NC1-54 and GLP-1(A8G/G22E/R36S)-Fn8-COL18NC1-60. In these genes, the length of the flexible unstructured polypeptide linker between Fn8 and COL18NC1 contained 20, 30, 54 and 60 residues, respectively. The protein sequences of GLP-1(A8G/G22E/R36S)-Fn8-COL18NC1-20, GLP-1(A8G/G22E/R36S)-Fn8-COL18NC1-30, GLP-1(A8G/G22E/R36S)-Fn8-COL18NC1-54 and GLP-1(A8G/G22E/R36S)-Fn8-COL18NC1-60 are listed as SEQ ID NO:8-11. The synthetic genes of GLP-1(A8G/G22E/R36S)-Fn8-COL18NC1-20, GLP-1(A8G/G22E/R36S)-Fn8-COL18NC1-30, GLP-1(A8G/G22E/R36S)-Fn8-COL18NC1-54 and GLP-1(A8G/G22E/R36S)-Fn8-COL18NC1-60 were grafted to the pET29b by NdeI and XhoI for protein expressions. The expression and purification of these fusion proteins were carried out using similar protocols described in example 3. To estimate the hydrodynamic radius and/or the Rg of the fusion proteins, the purified proteins were loaded on an analytical gel filtration column Superdex200 (GE Healthcare).
Moreover, the flexible unstructured linker between the therapeutic polypeptide and the scaffold protein may adjust the hydrodynamic radius and/or the Rg of the fusion molecule in a tunable manner.
The apparent molecular weights of the fusion proteins were estimated by use of an analytical gel filtration column Superdex-200 (GE Healthcare) mounted on the AKTA FPLC system (GE Healthcare). The purified fusion proteins GLP-1-Fn8, GLP-1-Fn8-COL18NC1, GLP-1(A8G/G22E/R36G)-Fn8-p246-COL18NC1 were loaded on the Superdex200 column. GLP-1-Fn8 is a fusion protein of GLP-1 and Fn8 and contains the first 144 amino acid residues of the fusion protein GLP-1-Fn8-COL18NC1 (SEQ ID NO:2). […] The genuine molecular weights for the fusion proteins GLP-1-Fn8 monomer, GLP-1-Fn8-COL18NC1 trimer, and GLP-1(A8G/G22E/R36G)-Fn8-p246-COL18NC1 trimer were ˜15 Kd, 65 Kd and 123Kd, respectively.

B1: GLP-1(A8G/G22E/R36G)-Fn8-p285-COL18NC1 (ligand)
chain: HGEGTFTSDVSSYLEEQAAKEFIAWLVKGGGSGGGSGGGSGGGSGGGSGSGGAVPPPTDLRFTNIGPDTMRVTWAPPPSIDLTNFLVRYSPVKNEEDVAELSISPSDNAVVLTNLLPGTEYVVSVSSVYEQHESTPLRGRQKTGGGGSGGGSGSGSESGSGGGSTSSGTGSETESPGSGSESGSGPSSAGSGSGSESGSGSGSSGPGSTGGSGSESGSGPGSSGTGGTATGSGSESGSGPGSSGPGSTGSGSGSESGSGSGSSGTGSTGGSGSESGSGPGSPRPGSTGTGSGSESGSGPGSSERGSAGGSGSESGSGTSESSASGSTGGSGSESGSGSESGSGSGSESGSGPESPGSGGSGSESGSGTSGSTGSGSESGSGPGSSGPGSTGSGSGSESGSGSGSSGTGSTGGSGSESGSGGGSGGGSGGGASSGVRLWATRQAMLGQVHEVPEGWLIFVAEQEELYVRVQNGFRKVQLEARTPLPRG
[1]
  EC50 (nM) measured by cAMP assay: 0.4 nM

B2: GLP1(A8G/G22E/R36G)-Fn8-p285-COL18NC1: fusion with Fn8, pCloud p285 and COL18NC1; SEQ ID NO: 23 (protein)
chain: HGEGTFTSDVSSYLEEQAAKEFIAWLVKGGGSGGGSGGGSGGGSGGGSGSGGAVPPPTDLRFTNIGPDTMRVTWAPPPSIDLTNFLVRYSPVKNEEDVAELSISPSDNAVVLTNLLPGTEYVVSVSSVYEQHESTPLRGRQKTGGGGSGGGSGSGSESGSGGGSTSSGTGSETESPGSGSESGSGPSSAGSGSGSESGSGSGSSGPGSTGGSGSESGSGPGSSGTGGTATGSGSESGSGPGSSGPGSTGSGSGSESGSGSGSSGTGSTGGSGSESGSGPGSPRPGSTGTGSGSESGSGPGSSERGSAGGSGSESGSGTSESSASGSTGGSGSESGSGSESGSGSGSESGSGPESPGSGGSGSESGSGTSGSTGSGSESGSGPGSSGPGSTGSGSGSESGSGSGSSGTGSTGGSGSESGSGGGSGGGSGGGASSGVRLWATRQAMLGQVHEVPEGWLIFVAEQEELYVRVQNGFRKVQLEARTPLPRG
[2]; Rats
  AUCall: 475.3 µg·h/mL
  CL/F: 1.37 mL/h/kg
  Cmax: 7.98 µg/mL
  T½: 31.2 h
  Vss: 62.0 mL/kg
[2]; SD rats
  half life: 31.2 h

B3: GLP-1(A8G/G22E/R36S)-Fn8-COL18NC1-60 (ligand)
chain: HGEGTFTSDVSSYLEEQAAKEFIAWLVKGSGGGGSGGAVPPPTDLRFTNIGPDTMRVTWAPPPSIDLTNFLVRYSPVKNEEDVAELSISPSDNAVVLTNLLPGTEYVVSVSSVYEQHESTPLRGRQKTGGGGSGGGSGGGSTASSASTKGPSGGGSGGGSGGGSAPSSKSTSGGTAAGGGSGGGSGGGSGASSGVRLWATRQAMLGQVHEVPEGWLIFVAEQEELYVRVQNGFRKVQLEARTPLPRG
[1]
  EC50 (nM) measured by cAMP assay: 0.5 nM
[3]
  apparent molecular weight: ~200 Kd

B4: GLP-1-Fn8-COL18NC1 (ligand)
chain: HAEGTFTSDVSSYLEGQAAKEFIAWLVKGRGGGGSGGGGSAVPPPTDLRFTNIGPDTMRVTWAPPPSIDLTNFLVRYSPVKNEEDVAELSISPSDNAVVLTNLLPGTEYVVSVSSVYEQHESTPLRGRQKTGGGGSGGGASSGVRLWATRQAMLGQVHEVPEGWLIFVAEQEELYVRVQNGFRKVQLEARTPLPRG
[1]
  EC50 (nM) measured by cAMP assay: 2.1 nM

B5: GLP-1(A8G/G22E)-Fn8-COL18NC1 (ligand)
chain: HGEGTFTSDVSSYLEEQAAKEFIAWLVKGRGGGGSGGGGSAVPPPTDLRFTNIGPDTMRVTWAPPPSIDLTNFLVRYSPVKNEEDVAELSISPSDNAVVLTNLLPGTEYVVSVSSVYEQHESTPLRGRQKTGGGGSGGGASSGVRLWATRQAMLGQVHEVPEGWLIFVAEQEELYVRVQNGFRKVQLEARTPLPRG
[1]
  EC50 (nM) measured by cAMP assay: 1.3 nM

B6: GLP-1(A8V/G22E)-Fn8-COL18NC1 (ligand)
chain: HVEGTFTSDVSSYLEEQAAKEFIAWLVKGRGGGGSGGGGSAVPPPTDLRFTNIGPDTMRVTWAPPPSIDLTNFLVRYSPVKNEEDVAELSISPSDNAVVLTNLLPGTEYVVSVSSVYEQHESTPLRGRQKTGGGGSGGGASSGVRLWATRQAMLGQVHEVPEGWLIFVAEQEELYVRVQNGFRKVQLEARTPLPRG
[1]
  EC50 (nM) measured by cAMP assay: 1.3 nM

B7: GLP-1(A8S/G22E)-Fn8-COL18NC1 (ligand)
chain: HSEGTFTSDVSSYLEEQAAKEFIAWLVKGRGGGGSGGGGSAVPPPTDLRFTNIGPDTMRVTWAPPPSIDLTNFLVRYSPVKNEEDVAELSISPSDNAVVLTNLLPGTEYVVSVSSVYEQHESTPLRGRQKTGGGGSGGGASSGVRLWATRQAMLGQVHEVPEGWLIFVAEQEELYVRVQNGFRKVQLEARTPLPRG
[1]
  EC50 (nM) measured by cAMP assay: 1.3 nM

B8: GLP-1(A8G/G22E/R36G)-Fn8-COL18NC1 (ligand)
chain: HGEGTFTSDVSSYLEEQAAKEFIAWLVKGGGGGGSGGGGSAVPPPTDLRFTNIGPDTMRVTWAPPPSIDLTNFLVRYSPVKNEEDVAELSISPSDNAVVLTNLLPGTEYVVSVSSVYEQHESTPLRGRQKTGGGGSGGGASSGVRLWATRQAMLGQVHEVPEGWLIFVAEQEELYVRVQNGFRKVQLEARTPLPRG
[1]
  EC50 (nM) measured by cAMP assay: 1.2 nM

B9: GLP-1(A8G/G22E/R36S)-Fn8-COL18NC1 (ligand)
chain: HGEGTFTSDVSSYLEEQAAKEFIAWLVKGSGGGGSGGGGSAVPPPTDLRFTNIGPDTMRVTWAPPPSIDLTNFLVRYSPVKNEEDVAELSISPSDNAVVLTNLLPGTEYVVSVSSVYEQHESTPLRGRQKTGGGGSGGGASSGVRLWATRQAMLGQVHEVPEGWLIFVAEQEELYVRVQNGFRKVQLEARTPLPRG
[1]
  EC50 (nM) measured by cAMP assay: 1.3 nM
[3]
  apparent molecular weight: ~100 Kd

B10: GLP-1-Fn8: fusion protein of GLP-1 and Fn8, first 144 residues of SEQ ID NO:2; monomer in solution (protein)
chain: HAEGTFTSDVSSYLEGQAAKEFIAWLVKGRGGGGSGGGGSAVPPPTDLRFTNIGPDTMRVTWAPPPSIDLTNFLVRYSPVKNEEDVAELSISPSDNAVVLTNLLPGTEYVVSVSSVYEQHESTPLRGRQKTGGGGSGGGASSGV
[3]
  apparent molecular weight: ~20 Kd
